Results on 2 molecules are retold here after patent US20060142193A1, “Selective inhibition of rock1 in cardiac therapy” (BAYLOR COLLEGE OF MEDICINE, priority 2004, published 2006).

The test system of one test is caspase 3. The experiment in a line: Caspase 3 activation in transfected neonatal rat cardiomyocytes (pCaspase3-sensor). It counts as cell-based. Particulars: overexpression vs control plasmid. From the text:
To determine whether ROCK1 activation by caspase 3 cleavage is able to activate the caspase cascade, thereby constituting an amplification loop of apoptotic responses, the present inventors transfected rat neonatal cardiomyocytes with a plasmid encoding a C-terminally truncated mutant (1-1080) of ROCK1 (ROCK1Δ1) that corresponds closely to the fragment generated by caspase 3 cleavage (1-1113), and a second plasmid, pCaspase3-sensor encoding a fluorescent (EYFP) fusion protein (FIG. 9A). […] Caspase 3 activity in the transfected myocytes was monitored by counting the number of transfected cells with nuclear localization of fluorescent fusion protein.
Apoptosis assay and immunofluorescence analysis. Apoptosis was evaluated using caspase 3 activity and poly(ADP-ribose) polymerase (PARP) cleavage with Western blot in human and mouse heart tissues. With regard to apoptotic cultured neonatal cardiomyocytes, a caspase 3 sensor (BD Biosciences) was introduced to detect the onset of caspase 3 activity (FIG. 9). The vector encodes EYFP (enhanced yellow fluorescent protein) fused with NES (nuclear export signal) and NLS (nuclear localization signal). A caspase 3 specific cleavage site is located between EYFP and NES. […] The quantification was performed by counting the number of transfected cells with the nuclear localization of fluorescent fusion protein over the total transfected cells. […]

Another test has as its system PTEN. In words: PTEN activity by Malachite green assay in human HEK cells. It counts as cell-based. Particulars: transfected HEK cells. An excerpt: (§1) To further characterize the mechanism involved in this caspase activation, the present inventors transfected ROCKΔ1 in human HEK cells. […] Since AKT is activated by PI3K, PTEN acts as the upstream PI3K inhibitor. In specific embodiments of the invention, the repression of AKT activity caused by ROCKΔ1 may contribute to its pro-apoptotic effect through the increase in PTEN activity. […] Meanwhile, the decreased level of pAKT by ROCKΔ1 was reverted by blocking PTEN expression. Furthermore, the pAKT level was higher than the control level (FIG. 22D), which further supported this specific embodiment.
Western blot and Malachite green assay. Anti-ROCK-1, caspase 3, PARP, His, α-actin antibodies (Santa Cruz), anti-phospho-AKTser473 (Cell Signaling) and anti-RTEN (Upstate) were purchased. Protein samples for Western blot were prepared and separated as described earlier (Chang et al., 2000). Even loadings were confirmed by Ponceau staining and antibody probed for actin. PTEN activity was evaluated by Malachite green assay (Upstate). 500 μg of cell lysate protein was used for immunoprecipitation.

A further test concerns the target T1, SRF (Homo sapiens, UniProt P11831).
T1 sequence (P11831 1-508): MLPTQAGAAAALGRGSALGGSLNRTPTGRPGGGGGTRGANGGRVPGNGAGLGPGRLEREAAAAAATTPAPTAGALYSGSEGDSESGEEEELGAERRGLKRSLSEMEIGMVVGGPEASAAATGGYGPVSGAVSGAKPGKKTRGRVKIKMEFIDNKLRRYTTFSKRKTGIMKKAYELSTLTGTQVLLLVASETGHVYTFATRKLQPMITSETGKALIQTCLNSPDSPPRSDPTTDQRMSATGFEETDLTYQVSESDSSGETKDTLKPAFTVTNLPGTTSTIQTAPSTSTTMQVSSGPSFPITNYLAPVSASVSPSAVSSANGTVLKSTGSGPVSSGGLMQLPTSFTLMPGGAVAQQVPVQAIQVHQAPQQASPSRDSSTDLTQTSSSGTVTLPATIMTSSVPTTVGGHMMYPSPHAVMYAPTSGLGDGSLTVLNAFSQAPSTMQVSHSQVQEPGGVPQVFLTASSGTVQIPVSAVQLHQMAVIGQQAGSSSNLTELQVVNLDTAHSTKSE
The experiment in a line: SRF cleavage by active caspase 3 in vitro in presence or absence of ROCK1Δ1. Particulars: in the presence of active ROCK1. It counts as biochemical. As to the method: Equal amounts of SRF were incubated with active caspase 3 in the presence or absence of ROCK1Δ1.

The subject of a further test is phospho-AKT (pAKT). The experiment in a line: phospho-AKT level in human HEK cells (Western blot). Particulars: transfected HEK cells. It counts as cell-based.
Text: as §1
Cell culture, plasmid constructs, and recombinant adenoviruses. Neonatal rat cardiomyocytes were isolated and cultured in DMEM/F12 medium (1:1) with 10% horse serum (DF10); cells were ready for transfection or virus infection 40 hours after plating. For immunostaining, cells were cultured on pre-coated (with 0.2% gelatin) coverslips. Transfections were performed using LipofectAMINE 2000 (Invitrogen) with Opti-MEM I Reduced Serum Medium (Invitrogen). After 6 hr or O/N, cells were cultured in DF10. With human embryonic kidney (HEK) A293T cells, cells were cultured in DMEM with 10% fetal bovine serum. […]
Western blot and Malachite green assay. […] PTEN activity was evaluated by Malachite green assay (Upstate). […]
On the technique in general: In western blotting, separated proteins are transferred to a membrane and probed.

B1: ROCK1Δ1: C-terminally truncated mutant (1-1080) of ROCK1, constitutively active, mimics caspase 3 cleaved fragment (protein, UniProt Q13464 1-1080, looked up, fragment)
chain: MSTGDSFETRFEKMDNLLRDPKSEVNSDCLLDGLDALVYDLDFPALRKNKNIDNFLSRYKDTINKIRDLRMKAEDYEVVKVIGRGAFGEVQLVRHKSTRKVYAMKLLSKFEMIKRSDSAFFWEERDIMAFANSPWVVQLFYAFQDDRYLYMVMEYMPGGDLVNLMSNYDVPEKWARFYTAEVVLALDAIHSMGFIHRDVKPDNMLLDKSGHLKLADFGTCMKMNKEGMVRCDTAVGTPDYISPEVLKSQGGDGYYGRECDWWSVGVFLYEMLVGDTPFYADSLVGTYSKIMNHKNSLTFPDDNDISKEAKNLICAFLTDREVRLGRNGVEEIKRHLFFKNDQWAWETLRDTVAPVVPDLSSDIDTSNFDDLEEDKGEEETFPIPKAFVGNQLPFVGFTYYSNRRYLSSANPNDNRTSSNADKSLQESLQKTIYKLEEQLHNEMQLKDEMEQKCRTSNIKLDKIMKELDEEGNQRRNLESTVSQIEKEKMLLQHRINEYQRKAEQENEKRRNVENEVSTLKDQLEDLKKVSQNSQLANEKLSQLQKQLEEANDLLRTESDTAVRLRKSHTEMSKSISQLESLNRELQERNRILENSKSQTDKDYYQLQAILEAERRDRGHDSEMIGDLQARITSLQEEVKHLKHNLEKVEGERKEAQDMLNHSEKEKNNLEIDLNYKLKSLQQRLEQEVNEHKVTKARLTDKHQSIEEAKSVAMCEMEKKLKEEREAREKAENRVVQIEKQCSMLDVDLKQSQQKLEHLTGNKERMEDEVKNLTLQLEQESNKRLLLQNELKTQAFEADNLKGLEKQMKQEINTLLEAKRLLEFELAQLTKQYRGNEGQMRELQDQLEAEQYFSTLYKTQVKELKEEIEEKNRENLKKIQELQNEKETLATQLDLAETKAESEQLARGLLEEQYFELTQESKKAASRNRQEITDKDHTVSRLEEANSMLTKDIEILRRENEELTEKMKKAEEEYKLEKEEEISNLKAAFEKNINTERTLKTQAVNKLAEIMNRKDFKIDRKKANTQDLRKKEKENRKLQLELNQEREKFNQMVVKHQKELNDMQAQLVEECAHRNELQMQL
Turning to B1, the “caspase 3 activation (nuclear localization of EYFP fusion protein)” value in the test on caspase 3 is listed as “induced significant caspase 3 activation”. Moreover, in the test on PTEN, the PTEN activity result is reported as “increased”. Also, in the test with SRF, the “full-length SRF level after incubation with active caspase 3” value is recorded as “markedly decreased”. Also, the “phospho-AKT (pAKT) level” value in the test with phospho-AKT (pAKT) is reported as “decreased”.

B2: full length ROCK1: full length human ROCK-1 expressed from pCAG-ROCK-1 (protein, UniProt Q13464 1-1354, looked up)
chain: MSTGDSFETRFEKMDNLLRDPKSEVNSDCLLDGLDALVYDLDFPALRKNKNIDNFLSRYKDTINKIRDLRMKAEDYEVVKVIGRGAFGEVQLVRHKSTRKVYAMKLLSKFEMIKRSDSAFFWEERDIMAFANSPWVVQLFYAFQDDRYLYMVMEYMPGGDLVNLMSNYDVPEKWARFYTAEVVLALDAIHSMGFIHRDVKPDNMLLDKSGHLKLADFGTCMKMNKEGMVRCDTAVGTPDYISPEVLKSQGGDGYYGRECDWWSVGVFLYEMLVGDTPFYADSLVGTYSKIMNHKNSLTFPDDNDISKEAKNLICAFLTDREVRLGRNGVEEIKRHLFFKNDQWAWETLRDTVAPVVPDLSSDIDTSNFDDLEEDKGEEETFPIPKAFVGNQLPFVGFTYYSNRRYLSSANPNDNRTSSNADKSLQESLQKTIYKLEEQLHNEMQLKDEMEQKCRTSNIKLDKIMKELDEEGNQRRNLESTVSQIEKEKMLLQHRINEYQRKAEQENEKRRNVENEVSTLKDQLEDLKKVSQNSQLANEKLSQLQKQLEEANDLLRTESDTAVRLRKSHTEMSKSISQLESLNRELQERNRILENSKSQTDKDYYQLQAILEAERRDRGHDSEMIGDLQARITSLQEEVKHLKHNLEKVEGERKEAQDMLNHSEKEKNNLEIDLNYKLKSLQQRLEQEVNEHKVTKARLTDKHQSIEEAKSVAMCEMEKKLKEEREAREKAENRVVQIEKQCSMLDVDLKQSQQKLEHLTGNKERMEDEVKNLTLQLEQESNKRLLLQNELKTQAFEADNLKGLEKQMKQEINTLLEAKRLLEFELAQLTKQYRGNEGQMRELQDQLEAEQYFSTLYKTQVKELKEEIEEKNRENLKKIQELQNEKETLATQLDLAETKAESEQLARGLLEEQYFELTQESKKAASRNRQEITDKDHTVSRLEEANSMLTKDIEILRRENEELTEKMKKAEEEYKLEKEEEISNLKAAFEKNINTERTLKTQAVNKLAEIMNRKDFKIDRKKANTQDLRKKEKENRKLQLELNQEREKFNQMVVKHQKELNDMQAQLVEECAHRNELQMQLASKESDIEQLRAKLLDLSDSTSVASFPSADETDGNLPESRIEGWLSVPNRGNIKRYGWKKQYVVVSSKKILFYNDEQDKEQSNPSMVLDIDKLFHVRPVTQGDVYRAETEEIPKIFQILYANEGECRKDVEMEPVQQAEKTNFQNHKGHEFIPTLYHFPANCDACAKPLWHVFKPPPALECRRCHVKCHRDHLDKKEDLICPCKVSYDVTSARDMLLLACSQDEQKKWVTHLVKKIPKNPPSGFVRASPRTLSTRSTANQSFRKVVKNTSGKTS
modifications: full-length
In the case of B2, the “caspase 3 activation (nuclear localization of EYFP fusion protein)” value in the test on caspase 3 is on record as “no significant effect”. The PTEN activity entry in the test with PTEN is “not found”.
